Columns and labels:
[1] = biological target: T1, TaVTC2 (Triticum aestivum, UniProt A0A650C200); experiment: microscale thermophoresis; assay type: binding
T1 construct: gene GGP2-D; full-length CDS; recombinant GST fusion (TaVTC2-GST) from E. coli BL21
T1 sequence (A0A650C200 1-431): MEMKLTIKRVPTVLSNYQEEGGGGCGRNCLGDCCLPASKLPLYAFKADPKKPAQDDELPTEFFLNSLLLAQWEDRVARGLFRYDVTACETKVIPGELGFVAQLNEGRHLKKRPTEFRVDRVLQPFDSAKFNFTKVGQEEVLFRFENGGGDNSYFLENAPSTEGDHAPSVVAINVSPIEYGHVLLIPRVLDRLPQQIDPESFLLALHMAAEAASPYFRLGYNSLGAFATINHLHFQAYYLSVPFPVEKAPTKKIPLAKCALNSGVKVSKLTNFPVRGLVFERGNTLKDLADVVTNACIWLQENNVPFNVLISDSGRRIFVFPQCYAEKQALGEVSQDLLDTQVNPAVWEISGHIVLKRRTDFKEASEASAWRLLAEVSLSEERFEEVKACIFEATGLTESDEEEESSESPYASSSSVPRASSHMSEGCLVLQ

[2] = biological target: TaVTC2-GST (wheat (Triticum aestivum)); experiment: ITC; ITC 200 Micro Calorimeter, 20 °C; 10 mM Tris-HCl, 150 mM sodium chloride, pH 7.5; one-set-of-sites model; which protein was in the syringe is not given
[3] = biological target: T2, NIb-His (wheat yellow mosaic virus (WYMV)); experiment: ITC
T2 chain: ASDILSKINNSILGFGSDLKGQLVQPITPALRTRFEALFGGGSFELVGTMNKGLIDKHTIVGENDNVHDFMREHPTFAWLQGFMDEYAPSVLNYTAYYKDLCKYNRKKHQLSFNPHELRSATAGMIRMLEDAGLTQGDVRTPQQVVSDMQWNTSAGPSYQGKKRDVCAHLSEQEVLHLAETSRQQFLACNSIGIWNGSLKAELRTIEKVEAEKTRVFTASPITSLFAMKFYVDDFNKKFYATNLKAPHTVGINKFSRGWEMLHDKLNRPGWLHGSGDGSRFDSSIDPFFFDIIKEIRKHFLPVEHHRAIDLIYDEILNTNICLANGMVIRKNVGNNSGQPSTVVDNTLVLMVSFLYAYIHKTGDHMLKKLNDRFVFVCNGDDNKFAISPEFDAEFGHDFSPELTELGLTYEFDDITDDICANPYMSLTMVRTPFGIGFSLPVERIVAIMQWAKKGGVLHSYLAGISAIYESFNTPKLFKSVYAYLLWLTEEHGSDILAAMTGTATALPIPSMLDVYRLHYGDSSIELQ

[4] = substrate: Nc1nc2c(ncn2[C@@H]2O[C@H](COP(=O)(O)OP(=O)(O)O[C@H]3O[C@@H](CO)[C@@H](O)[C@@H](O)[C@@H]3O)[C@@H](O)[C@H]2O)c(=O)[nH]1; experiment: purified protein; assay type: biochemical, Triticum aestivum; conditions: 5 mM K2HPO4, 2.5 mM MgCl2, 50 mM KCl, 50 mM HEPES pH 6.9, 20 °C

`Nc1nc2c(ncn2[C@@H]2O[C@H](COP(=O)(O)OP(=O)(O)O[C@H]3O[C@@H](CO)[C@@H](O)[C@@H](O)[C@@H]3O)[C@@H](O)[C@H]2O)c(=O)[nH]1` [GDP-L-galactose] gave a Kd [1] of 2.7 µM.

Work on NIb-His (natural protein) yielded a Ka [2] of 167000 M⁻¹.

B1: TaVTC2-GST (enzyme)
chain: T1 sequence (A0A650C200 1-431)
For B1, the Kd [3] was 5.98 µM and the Km [4] was 78 ± 22.9 µM.

Reference: PMC10106851, “Wheat yellow mosaic virus NIb targets TaVTC2 to elicit broad‐spectrum pathogen resistance in wheat” (Plant Biotechnology Journal, 2023)
